Consider 167 variants from the RNAGym collection of RNA variant scans (doi:10.7554/elife.80360).

Sequences and labels used below:
B1: Hairpin Ribozyme (parent)
chain: GUCCUCUUUCACGUGCGCGUGAAAGAGAGAAGUGAACCAGAGAAACACACGUUGUGGUAUAUUACCUGGUA

The data set covers variants of B1. The data set can be described thus: self-cleavage, relative activity (ratio to wild type); higher = more cleavage; co-transcriptional.
Consider A41C A47U, for which the self-cleavage came out at 0.229. Turning to G40C C50G, the self-cleavage is 0.12. The figure for A39G A59C is 0.122; for A39G A59G it is 0.116. C38A U52A: the self-cleavage amounted to 0.41. The figure for C38A U52C is 0.193; for C38A U52G it is 0.0831; for A41C U58C it is 1.2.

As to A41C U58G, the self-cleavage stood at 1.18. Turning to G40U G56C, the self-cleavage was 0.147.

G40U G56A: the self-cleavage was determined as 0.174. The figure for G40A U62A is 0.12. For G40A U62C, the self-cleavage stood at 0.141.

As to G40C U67C, the self-cleavage amounted to 0.098. For the variant G40A U52A, the self-cleavage was found to be 0.352. Regarding G40A U52C, the self-cleavage worked out at 0.347. In the case of A41U A49G it was 1.06; in that of A41U A49C, 0.238. For C38G G68A, the self-cleavage was found to be 0.247. On to A39U G56C, for which the self-cleavage worked out at 0.169. As for A39U G56U, the self-cleavage was 0.189. Take C38A G56C: the self-cleavage was found to be 0.136. As to C38A G56A, the self-cleavage turned out to be 0.178. As to C38U G57C, the self-cleavage amounted to 0.182. Regarding C38G A71C, the self-cleavage was determined as 0.272. Consider C38A G57C, for which the self-cleavage was determined as 0.157.

C38A G57U: the self-cleavage came out at 0.0968. In the case of C38A G57A it was 0.0809. Consider A39C U52A, for which the self-cleavage came to 0.543. On to C38A U62G, for which the self-cleavage came to 0.139. G40A A59C: the self-cleavage was determined as 0.121. Consider G40A A59U, for which the self-cleavage was found to be 0.136. As for G40U G51C, the self-cleavage turned out to be 0.104.

On to A39G G40C, for which the self-cleavage was determined as 0.0572. Take A39G G40U: the self-cleavage was 0.116. In the case of G40C U63G, the self-cleavage came out at 0.135. The figure for G40C U63A is 0.183; for A39C A64C it is 0.193; for A39G G54A it is 0.143. Take A39G G54C: the self-cleavage is 0.131. On to C38U G68C, for which the self-cleavage came out at 0.171. The figure for G40C A45C is 0.0755. G40A G42U: the self-cleavage amounted to 0.127. In the case of A39C G40C it was 0.0323; in that of A41G A43C, 0.285. The figure for A41G A43U is 0.152; for C38A A49U it is 0.0928. Regarding A39U C66U, the self-cleavage came out at 0.213. The figure for A41C U70A is 0.732. Regarding A41C U70G, the self-cleavage was 0.91. Consider A39U A44C, for which the self-cleavage was 0.127. In the case of A39U A44U it was 0.102; in that of G40U U62A, 0.141.

As for G40U U62C, the self-cleavage was found to be 0.212. For the variant C38A G54C, the self-cleavage came to 0.164. Turning to C38A G54U, the self-cleavage was determined as 0.135. As for C38A G54A, the self-cleavage was found to be 0.0977.

Regarding C38A A45U, the self-cleavage came to 0.143. For the variant C38A A45G, the self-cleavage worked out at 0.104. On to A39U U53C, for which the self-cleavage came out at 0.508. Consider A41G U55G, for which the self-cleavage was 0.138.

Consider A41G A59U, for which the self-cleavage came to 0.138. As to G40C G69C, the self-cleavage was 0.169. In the case of A39G G42C, the self-cleavage stood at 0.129. Consider A39G G42U, for which the self-cleavage was 0.107. As to C38A A71C, the self-cleavage was found to be 0.228. Turning to A41G A64G, the self-cleavage was 0.326. In the case of C38U C46G it was 0.123; in that of C38G C48U, 0.108; in that of C38G C48G, 0.071. Take A39U C65G: the self-cleavage was 0.232.

G40U G42A: the self-cleavage was determined as 0.202. Consider A41G C66U, for which the self-cleavage worked out at 0.682. A41G C66A: the self-cleavage is 0.355. On to G40C U62G, for which the self-cleavage was found to be 0.0847. In the case of G40C A47C it was 0.142; in that of A41C A43G, 0.191; in that of A41C A59C, 0.17. Take A39G C66U: the self-cleavage came to 0.194. A39G C66A: the self-cleavage came out at 0.101.

For G40A G68U, the self-cleavage is 0.156. The figure for G40A G68C is 0.223; for G40A G68A it is 0.211; for C38U A61U it is 0.164. As for A41C C48U, the self-cleavage was 0.183. The figure for G40U U60A is 0.191; for A39C A44U it is 0.129; for G40C G68U it is 0.148. In the case of G40C A44C it was 0.0317; in that of C38U U67G, 0.204. Regarding C38A U67C, the self-cleavage came out at 0.0697. With A39C C65G, the self-cleavage came out at 0.167. On to A39C C65U, for which the self-cleavage was 0.401. In the case of A39C A41C it was 0.349; in that of G40A C50G, 0.243. The figure for A39G A44U is 0.103; for C38A C66G it is 0.114; for A41C U53G it is 0.758.

Consider G40A U58G, for which the self-cleavage turned out to be 0.19.

Regarding G40A U58A, the self-cleavage came to 0.134. Consider C38U U53C, for which the self-cleavage amounted to 0.823. In the case of C38U U53G, the self-cleavage was 0.431.

Take C38U U53A: the self-cleavage is 0.731.

For the variant A41G A71U, the self-cleavage was determined as 0.733.

In the case of A41G A71C, the self-cleavage stood at 1.34.

For A41G A71G, the self-cleavage was determined as 1.08. As to C38U A39C, the self-cleavage stood at 0.152. For A39C A43U, the self-cleavage worked out at 0.123. In the case of A39C A43C it was 0.14; in that of C38U U60G, 0.431; in that of C38G C46G, 0.161. As for G40A U70C, the self-cleavage is 0.136. With A41C A71U, the self-cleavage amounted to 1.18. Take A41C A71G: the self-cleavage worked out at 1.26. With C38G A43C, the self-cleavage was found to be 0.198.

For A41U A64C, the self-cleavage is 0.153.

On to A39G A64G, for which the self-cleavage came to 0.275. Take G40U U67G: the self-cleavage is 0.151.

Turning to G40U U67C, the self-cleavage came out at 0.0949. Consider C38A G42A, for which the self-cleavage was 0.111. As to C38A A47G, the self-cleavage was 0.106. In the case of C38A U60C it was 0.251. In the case of A39G A61U, the self-cleavage was determined as 0.152.

As for C38U, the self-cleavage was 0.497. With C38G, the self-cleavage was determined as 0.181. The figure for C38G A61C is 0.133.

As to C38G U52A, the self-cleavage amounted to 0.169. In the case of C38G U52G it was 0.0784; in that of C38G U52C, 0.224. As for C38A U53G, the self-cleavage was determined as 0.0628. In the case of C38U U58A it was 0.333.

On to A39C G68C, for which the self-cleavage was 0.191.

Regarding A41G G56A, the self-cleavage is 0.255.

A39C C48G: the self-cleavage stood at 0.256. As to A39G G68U, the self-cleavage amounted to 0.107.

Turning to C38G U67G, the self-cleavage was 0.124. As to A41C A49G, the self-cleavage amounted to 0.561.

For the variant A41C A49U, the self-cleavage turned out to be 0.0586. As for A39U U62A, the self-cleavage is 0.126. For the variant A39C A61C, the self-cleavage was 0.117. For the variant C38U C48A, the self-cleavage worked out at 0.142.

As to A39C C66A, the self-cleavage was determined as 0.152.

In the case of A39C G56A, the self-cleavage stood at 0.193.

For A41G C46A, the self-cleavage stood at 0.151. G40A C48A: the self-cleavage was 0.246. For G40A C48G, the self-cleavage worked out at 0.135. For G40A C48U, the self-cleavage worked out at 0.136. Regarding C38G C50U, the self-cleavage was 0.0995. A39U A49G: the self-cleavage was determined as 0.169. Turning to C38G G57A, the self-cleavage was found to be 0.0627.

For the variant A39G A43C, the self-cleavage stood at 0.137.

A39C U63C: the self-cleavage came out at 0.122. For the variant A39G U58G, the self-cleavage worked out at 0.114. Turning to A39G U58A, the self-cleavage stood at 0.217.

Consider A41C C50A, for which the self-cleavage amounted to 0.634. In the case of G40C U53G it was 0.103; in that of G40C U53C, 0.168. Turning to A41G U60G, the self-cleavage worked out at 0.367. Consider A39U A45U, for which the self-cleavage stood at 0.142. Regarding A39G U60A, the self-cleavage is 0.228. In the case of A41U A44G, the self-cleavage was 0.153. Regarding A41U A44C, the self-cleavage came to 0.115. Turning to G40A A43C, the self-cleavage was 0.147. As to A39U A61G, the self-cleavage was 0.0916. A39U A61U: the self-cleavage amounted to 0.125. As for C38G A44U, the self-cleavage was 0.207. With C38G G42A, the self-cleavage amounted to 0.103.
